The target in one assay is human MMP14 (Homo sapiens, UniProt P50281). The assay can be described thus: FRET-based human MMP14 assay (selectivity of 02F03). Conditions: data not shown. The format is biochemical. As to the method:
(§1) To confirm the selectivity of ISVD 02F03 for ADAMTS5, inhibition of the enzymatic activity of MMP1, MMP14 and ADAMTS4 was evaluated via FRET-based assays and a human ADAMTS4 AlphaLISA, with the respective enzymes.
(§2) Activated human MMP1 or MMP14 was incubated for 30 minutes at room temperature with 10 μl of dilution series of ISVD 02F03. After incubation, 20 μl of respectively 5 μM or 2.5 μM fluorogenic peptide substrate (Mca-PLGL-Dpa-AR-NH2 Fluorogenic MMP Substrate (R&D Systems cat #ES001)) was added. The ability of ISVD 02F03 to prevent MMP1- and MMP14-mediated cleavage was monitored every minute for 2 hours at 37° C. on a Tecan Infinite M1000 plate reader.

A further assay addresses T1, guinea pig ADAMTS5 (Cavia porcellus, UniProt H0VFP0).
T1 sequence (H0VFP0 21-906): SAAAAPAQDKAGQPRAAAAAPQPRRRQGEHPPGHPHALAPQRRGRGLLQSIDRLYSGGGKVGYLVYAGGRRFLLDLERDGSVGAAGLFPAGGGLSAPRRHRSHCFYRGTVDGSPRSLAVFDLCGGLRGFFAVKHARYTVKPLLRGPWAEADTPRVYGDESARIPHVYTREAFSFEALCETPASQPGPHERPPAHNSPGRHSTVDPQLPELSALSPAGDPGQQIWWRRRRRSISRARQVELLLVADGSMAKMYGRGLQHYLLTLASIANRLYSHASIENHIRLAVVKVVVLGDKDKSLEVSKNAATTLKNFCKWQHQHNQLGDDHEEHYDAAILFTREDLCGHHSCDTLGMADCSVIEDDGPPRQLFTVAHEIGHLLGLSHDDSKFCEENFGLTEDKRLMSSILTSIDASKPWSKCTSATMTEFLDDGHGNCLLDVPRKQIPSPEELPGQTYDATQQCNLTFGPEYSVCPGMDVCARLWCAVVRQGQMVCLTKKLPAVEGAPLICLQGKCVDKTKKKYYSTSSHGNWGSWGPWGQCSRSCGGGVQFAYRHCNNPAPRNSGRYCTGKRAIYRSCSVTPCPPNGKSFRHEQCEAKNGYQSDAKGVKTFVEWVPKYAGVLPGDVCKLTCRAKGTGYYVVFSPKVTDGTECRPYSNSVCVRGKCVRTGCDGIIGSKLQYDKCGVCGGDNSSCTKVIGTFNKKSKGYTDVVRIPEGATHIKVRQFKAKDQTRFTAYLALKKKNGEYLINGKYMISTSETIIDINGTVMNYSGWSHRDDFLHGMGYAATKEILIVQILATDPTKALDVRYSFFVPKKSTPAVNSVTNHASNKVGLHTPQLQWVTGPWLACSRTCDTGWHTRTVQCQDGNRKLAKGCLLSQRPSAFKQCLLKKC
The assay can be described thus: SPR-based off-rate analysis, guinea pig ADAMTS5. The format is binding. The note with it: Experiment 1. How it is done:
(§3) Species cross-reactivity was initially evaluated via SPR-based off-rate analysis on a Biacore T100 instrument. Polypeptides were tested for binding to human, cynomolgus monkey (“cyno”), guinea pig, mouse, and bovine ADAMTS5. To this end, recombinant ADAMTS5 was immobilized onto a CM5 chip via amine coupling using EDC and NHS. Purified ISVD 02F03 was injected for 2 minutes at a concentration of 100 nM and allowed to dissociate for 15 min at a flow rate of 45 μl/min. Off-rate for each individual ADAMTS5 was determined by fitting a 1:1 interaction model (Langmuir model) onto the individual dissociation curves using the BIA Evaluation software. As a reference, off-rates on human ADAMTS5 were determined in each experiment.

A further assay deals with T2, human MMP1 (Homo sapiens, UniProt P03956).
T2 sequence (P03956 100-469): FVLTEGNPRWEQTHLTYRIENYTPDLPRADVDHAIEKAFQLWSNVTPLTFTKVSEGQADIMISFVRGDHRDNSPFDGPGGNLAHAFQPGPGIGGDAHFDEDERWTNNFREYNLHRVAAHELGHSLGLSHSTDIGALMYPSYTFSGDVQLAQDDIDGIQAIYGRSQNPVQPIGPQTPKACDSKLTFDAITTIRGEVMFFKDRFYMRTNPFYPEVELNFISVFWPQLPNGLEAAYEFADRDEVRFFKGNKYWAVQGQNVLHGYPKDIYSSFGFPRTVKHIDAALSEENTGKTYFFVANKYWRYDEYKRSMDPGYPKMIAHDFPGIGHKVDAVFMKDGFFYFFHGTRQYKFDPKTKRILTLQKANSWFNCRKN
The assay can be described thus: FRET-based human MMP1 assay (selectivity of 02F03). The format is biochemical. The note with it: data not shown. How it is done:
as §1, §2

Assay [1] deals with cynomolgus monkey ADAMTS5. The assay can be described thus: SPR-based off-rate analysis, cynomolgus ADAMTS5. The format is binding. Conditions: Experiment 1. As to the method: as §3
The next assay addresses T3, mouse ADAMTS5 (Mus musculus, UniProt Q9R001).
T3 sequence (Q9R001 262-930): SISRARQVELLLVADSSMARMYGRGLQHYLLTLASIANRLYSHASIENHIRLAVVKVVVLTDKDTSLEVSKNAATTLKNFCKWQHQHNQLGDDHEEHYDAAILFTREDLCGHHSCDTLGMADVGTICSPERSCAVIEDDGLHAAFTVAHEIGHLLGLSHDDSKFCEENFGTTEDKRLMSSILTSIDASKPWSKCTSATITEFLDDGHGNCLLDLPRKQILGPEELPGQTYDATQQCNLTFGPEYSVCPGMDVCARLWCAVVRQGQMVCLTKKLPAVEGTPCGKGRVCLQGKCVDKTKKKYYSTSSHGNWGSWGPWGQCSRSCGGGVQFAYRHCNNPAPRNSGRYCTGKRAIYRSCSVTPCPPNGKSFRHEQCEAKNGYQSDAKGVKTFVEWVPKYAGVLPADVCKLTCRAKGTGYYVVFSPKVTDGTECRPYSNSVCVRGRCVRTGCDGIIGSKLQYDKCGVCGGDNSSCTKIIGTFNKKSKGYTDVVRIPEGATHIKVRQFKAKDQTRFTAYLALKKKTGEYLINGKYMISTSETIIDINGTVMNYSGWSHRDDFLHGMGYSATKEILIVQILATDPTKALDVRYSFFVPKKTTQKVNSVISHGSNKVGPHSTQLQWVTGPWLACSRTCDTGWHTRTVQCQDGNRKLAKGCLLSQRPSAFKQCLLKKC
The assay can be described thus: SPR-based off-rate analysis, mouse ADAMTS5. Conditions: Experiment 2. Format: binding. How it is done: as §3

B1: ISVD 02F03: immunoglobulin single variable domain which specifically binds ADAMTS5 (protein)
VHH: EVQLVESGGGVVQPGGSLRLSCAASGRTVSSYAMGWFRQAPGKEREFVAGISRSAERTYYVDSLKGRFTISRDNSKNTVYLQMNSLRPEDTALYYCAADLDPNRIFSREEYAYWGQGTLVTVSS
modifications: Description of Artificial Sequence: Synthetic anti-ADAMTS5 immunoglobulin single variable domain (ISVD)
Turning to B1, the “inhibition of MMP14 activity” value with human MMP14 is recorded as “did not show any inhibition”. In the assay with guinea pig ADAMTS5, the “SPR based off-rate, kd, Guinea pig ADAMTS-5” value amounted to 3.4e-05 s⁻¹. In addition, the “inhibition of MMP1 activity” value in the assay with human MMP1 was “did not show any inhibition”. Moreover, the “SPR based off-rate, kd, Cyno ADAMTS-5” value in assay [1] came to 2.2e-05 s⁻¹. The “SPR based off-rate, kd, Mouse ADAMTS-5” value with mouse ADAMTS5 worked out at 0.00029 s⁻¹.
